{"source": "the RNAGym collection of RNA variant scans (doi:10.1093/molbev/msab373)", "parents": {"B1": {"name": "Azoarcus group I ribozyme (parent)", "chain": "GUGCCUUGCGCCGGGAAACCACGCAAGGGAUGGUGUCAAAUUCGGCGAAACCUAAGCGCCCGCCCGGGCGUAUGGCAACGCCGAGCCAAGCUUCGGCGCCUGCGCCGAUGAAGGUGUAGAGACUAGACGGCACCCACCUAAGGCAAACGCUAUGGUGAAGGCAUAGUCCAGGGAGUGGCGAAAGUCACACAAACCGG"}}, "data": [{"variants_of": "B1", "experiment": "reverse-splicing fitness (ratio to wild type); higher = more active; in vitro selection; Mg2+ level not given", "outline": "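An in vitro group I ribozyme library with randomized positions was T7-transcribed and gel-purified. In triplicate, 10 pmol RNA in EPPS pH 7.5 was reacted with 50 pmoles of a 30-nt RNA substrate for 1 h at 37 °C across several added MgCl2 levels (1–48 mM), then stopped with EDTA. Products were reverse transcribed from a substrate-complementary primer, PCR-amplified and sequenced (HiSeq 4000). Fitness is a variant's read proportion after selection over that before, normalised to wild type.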", "values": [{"variant": "C82A A111C A145U C169U U176G", "reverse-splicing fitness": 0.00718}, {"variant": "C82A A111C A120U C169U", "reverse-splicing fitness": 0.00555}, {"variant": "C82A A111C A120U C169G", "reverse-splicing fitness": 0.00388}, {"variant": "C82A A111C A120U C169A", "reverse-splicing fitness": 0.0037}, {"variant": "C82A A111C A120U C150A U176C", "reverse-splicing fitness": 0.00738}, {"variant": "C82A A111C A120U C150A U176G", "reverse-splicing fitness": 0.00369}, {"variant": "C82A A111C A120U C150A U176A", "reverse-splicing fitness": 0.00497}, {"variant": "C82A A111C A120U C150A C169G", "reverse-splicing fitness": 0.00503}, {"variant": "C82A A111C A120U C150A C169U", "reverse-splicing fitness": 0.00635}, {"variant": "C82A A111C A120U C150A C169A", "reverse-splicing fitness": 0.00599}, {"variant": "C82A A111C C150A C169A U176C", "reverse-splicing fitness": 0.0237}, {"variant": "C82A A111C C150A C169A U176A", "reverse-splicing fitness": 0.0188}, {"variant": "C82A A111C C150A C169A U176G", "reverse-splicing fitness": 0.00857}, {"variant": "C82A A111C C150G U176C", "reverse-splicing fitness": 0.0124}, {"variant": "C82A A111C C150G U176A", "reverse-splicing fitness": 0.0084}, {"variant": "C82A A111C C150G U176G", "reverse-splicing fitness": 0.00364}, {"variant": "C82A A111C A145C C150G C169A", "reverse-splicing fitness": 0.00764}, {"variant": "C82A A111C A145C C150G C169G", "reverse-splicing fitness": 0.00663}, {"variant": "C82A A111C A145C C150G C169U", "reverse-splicing fitness": 0.0102}, {"variant": "C82A A111C A145C C169U U176G", "reverse-splicing fitness": 0.00646}, {"variant": "C82A A111C A145C C169U U176C", "reverse-splicing fitness": 0.0138}, {"variant": "C82A A111C A145C C169U U176A", "reverse-splicing fitness": 0.0142}, {"variant": "C82A A111C A145C U176C", "reverse-splicing fitness": 0.0878}, {"variant": "C82A A111C A145C U176A", "reverse-splicing fitness": 0.0639}, {"variant": "C82A A111C A145C U176G", "reverse-splicing fitness": 0.0188}, {"variant": "C82A A111C C169G U176A", "reverse-splicing fitness": 0.0177}, {"variant": "C82A A111C C169G U176C", "reverse-splicing fitness": 0.0237}, {"variant": "C82A A111C A145C C150G C169U U176C", "reverse-splicing fitness": 0.0112}, {"variant": "C82A A111C A145C C150G C169U U176A", "reverse-splicing fitness": 0.00753}, {"variant": "C82A A111C A145C C150G C169U U176G", "reverse-splicing fitness": 0.00706}, {"variant": "C82A A111C A145G C169U U176G", "reverse-splicing fitness": 0.0073}, {"variant": "C82A A111C A145G C169U U176C", "reverse-splicing fitness": 0.0149}, {"variant": "C82A A111C A145G C169U U176A", "reverse-splicing fitness": 0.0177}, {"variant": "C82A A111C A145U C150A C169A U176C", "reverse-splicing fitness": 0.0143}, {"variant": "C82A A111C A145U C150A C169A U176A", "reverse-splicing fitness": 0.0148}, {"variant": "C82A A111C A145U C150A C169A U176G", "reverse-splicing fitness": 0.00891}, {"variant": "C82A A111C A145G C150U C169U", "reverse-splicing fitness": 0.0119}, {"variant": "C82A A111C A145G C150U C169A", "reverse-splicing fitness": 0.0103}, {"variant": "C82A A111C A145G C150U C169G", "reverse-splicing fitness": 0.00915}, {"variant": "C82A A111C A145G U176C", "reverse-splicing fitness": 0.0992}, {"variant": "C82A A111C A145G U176G", "reverse-splicing fitness": 0.017}, {"variant": "C82A A111C A145G U176A", "reverse-splicing fitness": 0.0768}, {"variant": "C82A A111C C150U C169G", "reverse-splicing fitness": 0.00783}, {"variant": "C82A A111C C150U C169U", "reverse-splicing fitness": 0.0128}, {"variant": "C82A A111C C150U C169A", "reverse-splicing fitness": 0.0115}, {"variant": "C82A A111C A120U C150A C169A U176C", "reverse-splicing fitness": 0.00418}, {"variant": "C82A A111C A120U C150A C169A U176A", "reverse-splicing fitness": 0.00546}, {"variant": "C82A A111C A120U C150A C169A U176G", "reverse-splicing fitness": 0.00277}, {"variant": "C82A A111C C150A C169G U176C", "reverse-splicing fitness": 0.0222}, {"variant": "C82A A111C C150A C169G U176A", "reverse-splicing fitness": 0.0151}, {"variant": "C82A A111C C150A C169G U176G", "reverse-splicing fitness": 0.00951}, {"variant": "C82A A111C A145U C150U C169A U176G", "reverse-splicing fitness": 0.00861}, {"variant": "C82A A111C A145U C150U C169A U176A", "reverse-splicing fitness": 0.014}, {"variant": "C82A A111C A145U C150U C169A U176C", "reverse-splicing fitness": 0.0146}, {"variant": "C82A A111C A120U C150G C169A", "reverse-splicing fitness": 0.00857}, {"variant": "C82A A111C A120U C150G C169U", "reverse-splicing fitness": 0.00639}, {"variant": "C82A A111C A120U C150G C169G", "reverse-splicing fitness": 0.0061}, {"variant": "C82A A111C A145U C150A C169G U176C", "reverse-splicing fitness": 0.022}, {"variant": "C82A A111C A145U C150A C169G U176A", "reverse-splicing fitness": 0.014}, {"variant": "C82A A111C A145U C150A C169G U176G", "reverse-splicing fitness": 0.0087}, {"variant": "C82A A111C A120U C169A U176A", "reverse-splicing fitness": 0.00417}, {"variant": "C82A A111C A120U C169A U176C", "reverse-splicing fitness": 0.0037}, {"variant": "C82A A111C A120U C169A U176G", "reverse-splicing fitness": 0.00184}, {"variant": "C82A A111C A120U C150G U176G", "reverse-splicing fitness": 0.00249}, {"variant": "C82A A111C A120U C150G U176C", "reverse-splicing fitness": 0.00623}, {"variant": "C82A A111C A120U C150G U176A", "reverse-splicing fitness": 0.00392}, {"variant": "C82A A111C A120U C150U C169U U176G", "reverse-splicing fitness": 0.0027}, {"variant": "C82A A111C A120U C150U C169U U176A", "reverse-splicing fitness": 0.00738}, {"variant": "C82A A111C A120U C150U C169U U176C", "reverse-splicing fitness": 0.00534}, {"variant": "C82A A111C C150A C169U U176A", "reverse-splicing fitness": 0.0161}, {"variant": "C82A A111C C150A C169U U176C", "reverse-splicing fitness": 0.0182}, {"variant": "C82A A111C C150A C169U U176G", "reverse-splicing fitness": 0.0104}, {"variant": "C82A A111C A145G C150A C169G U176G", "reverse-splicing fitness": 0.0087}, {"variant": "C82A A111C A145G C150A C169G U176A", "reverse-splicing fitness": 0.0152}, {"variant": "C82A A111C A145G C150A C169G U176C", "reverse-splicing fitness": 0.0253}, {"variant": "C82A A111C A145C C169G U176A", "reverse-splicing fitness": 0.0269}, {"variant": "C82A A111C A145C C169G U176G", "reverse-splicing fitness": 0.00783}, {"variant": "C82A A111C A145C C169G U176C", "reverse-splicing fitness": 0.0216}, {"variant": "C82A A111C A145C C169U", "reverse-splicing fitness": 0.0124}, {"variant": "C82A A111C A145C C169A", "reverse-splicing fitness": 0.00711}, {"variant": "C82A A111C A145C C169G", "reverse-splicing fitness": 0.00923}, {"variant": "C82A A111C A145U C150A U176C", "reverse-splicing fitness": 0.0205}, {"variant": "C82A A111C A145U C150A U176G", "reverse-splicing fitness": 0.00868}]}]}
